The RNAGym collection of RNA variant scans (doi:10.7554/elife.80360)

B1: HDV Ribozyme (parent)
chain: GGCCGGCAUGGUCCCAGCCUCCUCGCUGGCGCCGGCUGGGCAACAUUCCGAGGGGACCGUCCCCUCGGUAAUGGCGAAUGGGACCCA

Variants of: B1
Test: self-cleavage, relative activity (ratio to wild type); higher = more cleavage; co-transcriptional

Point of comparison: GGCCGGCAGGGUCCCAGCCUACUCGCUGGCGCCGGCUGGGCAACAUUCCGAGGGGACCGUCCCCUCGGUAAUGGCGAAUGGGACCCA [U9G C21A], self-cleavage 0.123. Against it:
- GGCCGGCACCGUCCCAGCCUCCUCGCUGGCGCCGGCUGGGCAACAUUCCGAGGGGACCGUCCCCUCGGUAAUGGCGAAUGGGACCCA [U9C G10C] — higher, 0.767
- GGCCGGCAGGGUACCAGCCUCCUCGCUGGCGCCGGCUGGGCAACAUUCCGAGGGGACCGUCCCCUCGGUAAUGGCGAAUGGGACCCA [U9G C13A] — higher, 0.831
- GGCCGGCAGGGUCCCAGCCUCCUCGCUGGCGCCGGCUGGGCAACAUUCCGAGGGGACCGUCCCCUCGGUAAUGGCGAAUGGGACCCC [U9G A87C] — higher, 0.969
- GGCCGGCACGGUCCCAGCCUCCUCGCUAGCGCCGGCUGGGCAACAUUCCGAGGGGACCGUCCCCUCGGUAAUGGCGAAUGGGACCCA [U9C G28A] — lower, 0.101
- GGCCGGCACGGUCCCAGCCUCCUCGCUGGCGCCGGCUGGGCAACAUUCCGAGGGGAGCGUCCCCUCGGUAAUGGCGAAUGGGACCCA [U9C C57G] — higher, 1.17
- GGCCGGCACGGUCCCAGCCUCCUCGCUGGCGCCGGCUGGGCAACAUUCCGAGGGGACCGUCCCCUCGGUAACGGCGAAUGGGACCCA [U9C U72C] — higher, 0.485
- GGCCGGCACGGUCCCAGCCUCCUCGCUGGCGCCGGCUGGGCAACAUUCCGAGGGGACCGUCCCCUCGGUAAUGGGGAAUGGGACCCA [U9C C75G] — lower, 0
- GGCCGGCAGGGUCCCAGCCUCCUCGCUGGCGCCGGCUGGGCAACAUUCGGAGGGGACCGUCCCCUCGGUAAUGGCGAAUGGGACCCA [U9G C49G] — higher, 0.886
- GGCCGGCACGGUCCCAGCCUCCUCGCUGACGCCGGCUGGGCAACAUUCCGAGGGGACCGUCCCCUCGGUAAUGGCGAAUGGGACCCA [U9C G29A] — higher, 0.222
- GGCCGGCAGGGUCCCAGCCUCCUCGCUGGCGCCGGCUGGGCAACAUUCCGAGGGGACCGUCCCCUCGGUAUUGGCGAAUGGGACCCA [U9G A71U] — higher, 1.13
- GGCCGGCAGGGUCCCAGCCUCCUCGCUGGCGCCGGCUGGGCAACAUUCCGAGGGGACCGUCCCCUCGGUAGUGGCGAAUGGGACCCA [U9G A71G] — higher, 0.831
- GGCCGGCAGGGUCCCAGCCUCCUCGCUGGCGCCGGCUGGGCAACAUUCCGAGGGGACCGUCCCCUCGGUACUGGCGAAUGGGACCCA [U9G A71C] — higher, 0.787
- GGCCGGCACGGUCCCAGCCUCCUCGCUGGCGCCGGCUGGGCAACAUUCCGAGGGGACCGUCCCCUCGCUAAUGGCGAAUGGGACCCA [U9C G68C] — higher, 0.89
- GGCCGGCACGGUCCCAGCCUCCUCGCUGGCGCCGGCUGGGCAACAUUCCGAGGGGACCGUCUCCUCGGUAAUGGCGAAUGGGACCCA [U9C C62U] — higher, 0.869
- GGCCGGCACGGUCCCAGCCUCCUCGCUGGCGCCGGCUGGGCAACAUUCCGAGGGGACCGUCACCUCGGUAAUGGCGAAUGGGACCCA [U9C C62A] — higher, 1.14
- GGCCGGCACGGUCCCAGCCUCCUCGCUGGCGCCGGCUGGGCAACAUUCCGAGGGGACCGUCCCCUCGGUAAUGUCGAAUGGGACCCA [U9C G74U] — higher, 0.467
- GGCCGGCAGGGUCCCAGCCUCCUCGCUGGCGGCGGCUGGGCAACAUUCCGAGGGGACCGUCCCCUCGGUAAUGGCGAAUGGGACCCA [U9G C32G] — higher, 0.317
- GGCCGGCACGGUCCCAGCCUCCUCGCUGGCGCCGGCUGGGCAACAUUCCGAGGGGACCGUCCCCUUGGUAAUGGCGAAUGGGACCCA [U9C C66U] — higher, 0.919
- GGCCGGCACGGUCCCAGCCUCCUCGCUGGCGCCGGCUGGGCAACACUCCGAGGGGACCGUCCCCUCGGUAAUGGCGAAUGGGACCCA [U9C U46C] — higher, 0.831
- GGCCGGCACGGUCCCAGCCUCCUCGCUGGCGCCGGCUGGGCAACAUUCCGAGGGGACGGUCCCCUCGGUAAUGGCGAAUGGGACCCA [U9C C58G] — higher, 1.14
- GGCCGGCAGGGUCCCAGCCUCCUCGCUGGCGCCGGCUGGGCAAGAUUCCGAGGGGACCGUCCCCUCGGUAAUGGCGAAUGGGACCCA [U9G C44G] — higher, 0.7
- GGCCGGCAGGGUCCCAGCCUCUUCGCUGGCGCCGGCUGGGCAACAUUCCGAGGGGACCGUCCCCUCGGUAAUGGCGAAUGGGACCCA [U9G C22U] — higher, 0.44
- GGCCGGCAGGGUCCCAGCCUCAUCGCUGGCGCCGGCUGGGCAACAUUCCGAGGGGACCGUCCCCUCGGUAAUGGCGAAUGGGACCCA [U9G C22A] — higher, 0.314
- GGCCGGCAGGGUCCCAGCCUCCUCGCUGGCGCCGGGUGGGCAACAUUCCGAGGGGACCGUCCCCUCGGUAAUGGCGAAUGGGACCCA [U9G C36G] — lower, 0.115
- GGCCGGCACGGUCCCAGCCUCCUCGCUGGCGCCGGCUGGGCAACAUUCCGAGGGGACCGUGCCCUCGGUAAUGGCGAAUGGGACCCA [U9C C61G] — higher, 0.755
- GGCCGGCAGGGUCCCAGCCUCCUCGCUGGCGCCGGCUGGGCAGCAUUCCGAGGGGACCGUCCCCUCGGUAAUGGCGAAUGGGACCCA [U9G A43G] — higher, 0.475
- GGCCGGCAGGGUCCCAGCCUCCUCGCUGGCGCCGGCUGGGCACCAUUCCGAGGGGACCGUCCCCUCGGUAAUGGCGAAUGGGACCCA [U9G A43C] — higher, 0.415
- GGCCGGCAGGGUCCCAGCCUUCUCGCUGGCGCCGGCUGGGCAACAUUCCGAGGGGACCGUCCCCUCGGUAAUGGCGAAUGGGACCCA [U9G C21U] — higher, 0.332
- GGCCGGCACGGUCCCAGCCUCCCCGCUGGCGCCGGCUGGGCAACAUUCCGAGGGGACCGUCCCCUCGGUAAUGGCGAAUGGGACCCA [U9C U23C] — higher, 1.06
- GGCCGGCAGGGUCCGAGCCUCCUCGCUGGCGCCGGCUGGGCAACAUUCCGAGGGGACCGUCCCCUCGGUAAUGGCGAAUGGGACCCA [U9G C15G] — higher, 0.739
- GGCCGGCAGGGUCACAGCCUCCUCGCUGGCGCCGGCUGGGCAACAUUCCGAGGGGACCGUCCCCUCGGUAAUGGCGAAUGGGACCCA [U9G C14A] — higher, 0.831
